Measured values reported in patent US20240400614A1, “CLEAVABLE PEPTIDES AND METHODS OF USE THEREOF” (Bright Peak Therapeutics AG, priority 2023, published 2024).
Square brackets hold non-standard residues; d marks the D form. Ends that are not written are not given here. Tyr(3-NO2) = N[C@@H](Cc1ccc(O)c([N+](=O)[O-])c1)C(=O)O; Nle = CCCC[C@H](N)C(=O)O; 2Abz = Nc1ccccc1C(=O)O

Experiments:
Assay type in all cases: biochemical
MMP-2 = biological target: T1, MMP-2 (Homo sapiens, UniProt P08253); experiment: FRET peptide cleavage efficiency with MMP-2
T1 construct: purchased SIGMA PF023
T1 sequence (P08253 110-660): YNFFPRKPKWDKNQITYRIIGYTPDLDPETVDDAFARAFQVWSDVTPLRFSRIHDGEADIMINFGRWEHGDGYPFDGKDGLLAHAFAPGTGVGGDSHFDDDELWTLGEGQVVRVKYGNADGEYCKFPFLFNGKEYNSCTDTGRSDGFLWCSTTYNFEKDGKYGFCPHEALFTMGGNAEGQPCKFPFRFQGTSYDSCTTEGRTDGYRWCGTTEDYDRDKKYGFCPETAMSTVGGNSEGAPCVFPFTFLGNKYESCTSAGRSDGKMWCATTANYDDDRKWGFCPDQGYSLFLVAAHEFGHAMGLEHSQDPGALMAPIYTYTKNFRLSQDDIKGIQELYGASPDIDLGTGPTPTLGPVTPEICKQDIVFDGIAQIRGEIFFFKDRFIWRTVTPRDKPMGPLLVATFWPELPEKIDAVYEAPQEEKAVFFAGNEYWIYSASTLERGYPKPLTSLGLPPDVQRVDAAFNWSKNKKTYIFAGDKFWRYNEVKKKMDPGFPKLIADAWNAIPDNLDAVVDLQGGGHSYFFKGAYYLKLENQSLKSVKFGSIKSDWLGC

uPA = uPA (Homo sapiens, UniProt P00749); experiment: FRET peptide cleavage efficiency with uPA
matriptase = biological target: T2, matriptase (Homo sapiens, UniProt Q9Y5Y6); experiment: FRET peptide cleavage efficiency with matriptase
T2 construct: purchased R&D Systems 3946-SEB
T2 sequence (Q9Y5Y6 615-855 limits assumed): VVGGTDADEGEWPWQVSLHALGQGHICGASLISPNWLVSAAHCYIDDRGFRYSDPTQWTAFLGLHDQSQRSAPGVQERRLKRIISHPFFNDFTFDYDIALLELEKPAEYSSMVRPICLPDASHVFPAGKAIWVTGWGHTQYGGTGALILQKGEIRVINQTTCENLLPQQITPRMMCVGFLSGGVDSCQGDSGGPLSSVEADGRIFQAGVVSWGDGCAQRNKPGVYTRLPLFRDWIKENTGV

[1] = 200 uM linker, 1 ug/ml protease, 37° C., buffer C pH 7.5
[2] = 200 uM linker, 1 ug/ml protease, 37° C., buffer A pH 8.5
[3] = 200 uM linker, 1 ug/ml protease, 37° C., buffer B pH 9.0

Substance	% cleavage MMP-2 t = 15 min (MMP-2; [1]) [%]	% cleavage MMP-2 t = 60 min (MMP-2; [1]) [%]	% cleavage MMP-2 t = 120 min (MMP-2; [1]) [%]	% cleavage uPA t = 15 min (uPA; [2]) [%]	% cleavage uPA t = 60 min (uPA; [2]) [%]	% cleavage uPA t = 120 min (uPA; [2]) [%]	% cleavage Matriptase t = 15 min (matriptase; [3]) [%]	% cleavage Matriptase t = 60 min (matriptase; [3]) [%]	% cleavage Matriptase t = 120 min (matriptase; [3]) [%]	% cleavage uPA t = 15 min (uPA) [%]	% cleavage uPA t = 60 min (uPA) [%]	% cleavage uPA t = 120 min (uPA) [%]	% cleavage Matriptase t = 15 min (matriptase) [%]	% cleavage Matriptase t = 60 min (matriptase) [%]	% cleavage Matriptase t = 120 min (matriptase) [%]	% cleavage MMP-2 t = 15 min (MMP-2) [%]	% cleavage MMP-2 t = 60 min (MMP-2) [%]	% cleavage MMP-2 t = 120 min (MMP-2) [%]
KLFSSKQ ([2Abz]KLFSSKQ[Tyr(3-NO2)]-NH2) [LNK072]	1	13	25	–	–	–	–	–	–	–	–	–	–	–	–	–	–	–
KWGKSAPLGLAG ([2Abz]KWGKSAPLGLAG[Tyr(3-NO2)]-NH2) [LNK026]	69	98	98	0	1	3	97	86	86	–	–	–	–	–	–	–	–	–
PASNRRLPLGLAG ([2Abz]PASNRRLPLGLAG[Tyr(3-NO2)]-NH2) [LNK018]	40	83	87	0	0	0	49	92	97	–	–	–	–	–	–	–	–	–
RQRRS-Nle-PLGLAG ([2Abz]RQRRS[Nle]PLGLAG[Tyr(3-NO2)]-NH2) [LNK025]	64	97	98	0	1	2	97	84	77	–	–	–	–	–	–	–	–	–
RQRRSAAPLGLAG ([2Abz]RQRRSAAPLGLAG[Tyr(3-NO2)]-NH2) [LNK028]	72	99	99	0	1	2	97	86	79	–	–	–	–	–	–	–	–	–
RQRRSAPLGLAG ([2Abz]RQRRSAPLGLAG[Tyr(3-NO2)]-NH2) [LNK009]	72	99	99	0	1	3	71	45	31	–	–	–	–	–	–	–	–	–
RQRRSVVGG ([2Abz]RQRRSVVGG[Tyr(3-NO2)]-NH2) [LNK029]	0	0	0	0	0	1	96	96	98	–	–	–	–	–	–	–	–	–
RYGKSAPLGLAG ([2Abz]RYGKSAPLGLAG[Tyr(3-NO2)]-NH2) [LNK027]	66	99	99	3	9	17	99	97	98	–	–	–	–	–	–	–	–	–
SGRVLGPAGLVG (Abz-SGRVLGPAGLVG[Tyr(3-NO2)]) [LNK005]	–	–	–	–	–	–	–	–	–	0	0	1	15	63	86	100	98	97
SGRVLGPANLVG (Abz-SGRVLGPANLVG[Tyr(3-NO2)]) [LNK006]	–	–	–	–	–	–	–	–	–	0	0	1	19	71	92	98	98	96
SGRVLGPLNLSG ([2Abz]SGRVLGPLNLSG[Tyr(3-NO2)]-NH2) [LNK008]	71	99	99	1	1	2	20	72	92	–	–	–	–	–	–	–	–	–
SGRVLPAGLVG ([2Abz]SGRVLPAGLVG[Tyr(3-NO2)]-NH2) [LNK007]	99	95	94	0	0	1	23	79	97	–	–	–	–	–	–	–	–	–
SGRVLPANLVG ([2Abz]SGRVLPANLVG[Tyr(3-NO2)]-NH2) [LNK015]	94	99	98	0	0	1	25	78	96	–	–	–	–	–	–	–	–	–
SGRVLPLGMRA ([2Abz]SGRVLPLGMRA[Tyr(3-NO2)]-NH2) [LNK023]	96	98	98	2	2	3	38	92	99	–	–	–	–	–	–	–	–	–
SGRVLPYAMTA ([2Abz]SGRVLPYAMTA[Tyr(3-NO2)]-NH2) [LNK024]	55	97	99	1	0	1	44	92	98	–	–	–	–	–	–	–	–	–
SGRVLRKAGPAGLVG ([2Abz]SGRVLRKAGPAGLVG[Tyr(3-NO2)]-NH2) [LNK013]	99	99	100	0	2	6	99	94	94	–	–	–	–	–	–	–	–	–
SGRVLTLRKAALPLAM ([2Abz]SGRVLTLRKAALPLAM[Tyr(3-NO2)]-NH2) [LNK020]	55	98	99	11	26	45	98	99	99	–	–	–	–	–	–	–	–	–
SGRVLTLRKAGPAGLVG ([2Abz]SGRVLTLRKAGPAGLVG[Tyr(3-NO2)]-NH2) [LNK011]	98	99	98	6	17	35	99	99	99	–	–	–	–	–	–	–	–	–
SGRVLTLRKAGPANLVG ([2Abz]SGRVLTLRKAGPANLVG[Tyr(3-NO2)]-NH2) [LNK012]	97	97	94	0	15	34	99	99	98	–	–	–	–	–	–	–	–	–
